This note sets out measurements from publication PMC6546705.

One may read the stoichiometry N as a count of units in the complex or per binding partner.

In this test the target is recombinant MnSOD-WT (manganese superoxide dismutase, wild type) (UniProt P04179). In words: SEC; Superdex 200 Increase 10/300 GL, 50 mM potassium phosphate pH 7.8; size from a calibration curve of gel filtration standards. In general terms: In gel filtration, larger molecules generally elute earlier.

For the substance “recombinant MnSOD-WT (manganese superoxide dismutase, wild type) (from UniProt P04179 25-222) (enzyme)”, the stoichiometry N is 4.
